PMC5443882
“And” between values parts separate entries of the source, which are not always exact repeats. Equal values may be shown once.

Experiments:
[1] = target: LHCII, the major light-harvesting pigment-protein complex of Photosystem II (Spinacia oleracea (endogenous in spinach leaves)); assay: native gel or EMSA; non-denaturing gel electrophoresis of LHCII isolated from dark-adapted spinach leaves, suspended in 0.1% DM; 3% stacking and 8% separating gel, 4 °C, running buffer 96 mM glycine, 12.5 mM Tris, 0.05% LDS
[2] = target: LHCII, the major light-harvesting pigment-protein complex of Photosystem II (Spinacia oleracea (endogenous in spinach leaves)); assay: native gel or EMSA; identical experiment with thylakoid membranes from dark-adapted spinach leaves solubilised in 0.1% DM, electrophoresis under illumination of increasing intensity (Fig. S4)
[3] = target: LHCII, the major light-harvesting pigment-protein complex of Photosystem II (Spinacia oleracea (endogenous in spinach leaves)); assay: native gel or EMSA; non-denaturing gel electrophoresis of LHCII from dark-adapted leaves in 0.1% DM under constant illumination from sample loading, each slot at a different light intensity (11-1240 µmol photons m^-2 s^-1); 4 °C
[4] = target: LHCII, the major light-harvesting pigment-protein complex of Photosystem II (Spinacia oleracea (endogenous in spinach leaves)); assay: native gel or EMSA; non-denaturing gel electrophoresis of LHCII-HL, isolated from spinach leaves pre-illuminated with 1200 µmol photons m^-2 s^-1, suspended in 0.1% DM; 4 °C, running buffer 96 mM glycine, 12.5 mM Tris, 0.05% LDS
[5] = target: LHCII, the major light-harvesting pigment-protein complex of Photosystem II (Spinacia oleracea (endogenous in spinach leaves)); assay: fluorescence correlation spectroscopy; mixture of LHCII trimers and monomers in 0.1% DM, illuminated with blue light of 100 µmol photons m^-2 s^-1 for 30 min, diluted to 3 nM; the form is assigned by its diffusion coefficient against monomer and trimer standards
[6] = target: LHCII, the major light-harvesting pigment-protein complex of Photosystem II (Spinacia oleracea (endogenous in spinach leaves)); assay: native gel or EMSA; lipid-LHCII samples enriched with exogenously added zeaxanthin, separated by native electrophoresis; dimer bands cut out for spectroscopy

“LHCII, the major light-harvesting pigment-protein complex of Photosystem II (natural protein)” was tested, and the stoichiometry N [1] was 3, the trimer/monomer ratio [1] was 2.82 and the stoichiometry N [2] was 3 and 2. The stoichiometry N [3] was 3 and 2, the stoichiometry N [4] was 3 and 2 and the trimer/monomer ratio [4] was 0.71. For the same substance, the stoichiometry N [5] was 2 and the stoichiometry N [6] was 2.
